In publication PMC11480844 (2024):

B1: H2-Kb / Ed39 (parent complex)
chain 1: GEQVEQRPPHLSVREGDSAVIICTYTDPNSYYFFWYKQEPGAGLQLLMKVFSSTEINEGQGFTVLLNKKDKQLSLNLTAAHPGDSAVYFCATMSNYNVLYFGSGTKLTVEP
chain 2: GALVYQYPRRTICKSGTSMRMECQAVGFQATSVAWYRQSPQKTFELIALSTVNSAIKYEQNFTQEKFPISHPNLSFSSMTVLNAYLEDRGLYLCGARDGSYEQYFGPGTRLTVL
chain 3: not shown
chain 4: IQKTPQIQVYSRHPPENGKPNILNCYVTQFHPPHIEIQMLKNGKKIPKVEMSDMSFSKDWSFYILAHTEFTPTETDTYACRVKHDSMAEPKTVYWDRDM
chain 5: SIINFEKL
B2: H2-Kb / Ed8 (parent complex)
chain 1: AQSVTQPDARVTVSEGASLQLRCKYSYFGTPYLFWYVQYPRQGLQLLLKYYPGDPVVQGVNGFEAEFSKSNSSFHLRKASVHWSDWAVYFCAVSPGSGGKLTLGAGTRLQVNL
chain 2: DSGVVQSPRHIIKEKGGRSVLTCIPISGHSNVVWYQQTLGKELKFLIQHYEKVERDKGFLPSRFSVQQFDDYHSEMNMSALELEDSAMYFCASSPRASNYTFGSGTRLLVI
chain 3: not shown
chain 4: B1 chain 4
chain 5: SIINFEKL

Variants of: B1
Assay: % of reporter cells activated (NFAT-GFP), raw
Also: test concentration or dose not given here.

| ratio to parent | Variant |
| --- | --- |
| 0.0308 | chain 5 I3H |
| 0.564 | chain 5 I3M |
| 0.706 | chain 5 I3L |
| 0.12 | chain 5 I3S |
| 0.293 | chain 5 I3P |
| 0.0638 | chain 5 I3R |
| 0.286 | chain 5 I3K |
| 0.956 | chain 5 I3V |
| 0.416 | chain 5 I3T |
| 0.0404 | chain 5 I3Y |
| 0.314 | chain 5 I3N |
| 0.00392 | chain 5 S1E |
| 0.0621 | chain 5 S1C |
| 0.00689 | chain 5 S1N |
| 0.00622 | chain 5 S1P |
| 0.0798 | chain 5 S1H |
| 0.00419 | chain 5 S1L |
| 0.00499 | chain 5 S1M |
| 0.00514 | chain 5 S1F |
| 0.0114 | chain 5 S1W |
| 0.0783 | chain 5 S1K |
| 0.00338 | chain 5 S1I |
| 0.272 | chain 5 S1G |
| 0.0243 | chain 5 S1V |
| 0.0073 | chain 5 S1A |
| 0.00365 | chain 5 S1D |

| ratio to parent | Variant |
| --- | --- |
| 0.00347 | chain 5 S1Q |
| 0.00457 | chain 5 S1T |
| 1.25 | chain 5 N4D |
| 0.124 | chain 5 N4H |
| 0.0741 | chain 5 N4S |
| 0.00203 | chain 5 N4T |
| 0.114 | chain 5 N4G |
| 0.00191 | chain 5 N4V |
| 0.127 | chain 5 N4W |
| 0.174 | chain 5 N4P |
| 0.196 | chain 5 N4L |
| 0.22 | chain 5 N4R |
| 0.0192 | chain 5 N4C |
| 0.0243 | chain 5 N4A |
| 0.0498 | chain 5 N4K |
| 0.106 | chain 5 N4E |
| 0.0203 | chain 5 N4Y |
| 0.0119 | chain 5 N4F |
| 0.00879 | chain 5 N4M |
| 0.331 | chain 5 K7C |
| 0.408 | chain 5 K7L |
| 0.355 | chain 5 K7R |
| 0.0199 | chain 5 K7H |
| 0.0214 | chain 5 K7I |
| 0.665 | chain 5 K7M |
| 0.0761 | chain 5 K7F |

| ratio to parent | Variant |
| --- | --- |
| 0.112 | chain 5 K7A |
| 0.0483 | chain 5 K7Y |
| 0.00558 | chain 5 K7D |
| 0.115 | chain 5 K7V |
| 0.293 | chain 5 K7S |
| 0.355 | chain 5 K7W |
| 0.865 | chain 5 K7Q |
| 0.326 | chain 5 K7P |
| 0.703 | chain 5 L8T |
| 0.425 | chain 5 L8D |
| 0.762 | chain 5 L8M |
| 0.361 | chain 5 L8E |
| 0.617 | chain 5 L8Q |
| 0.663 | chain 5 L8A |
| 0.801 | chain 5 L8R |
| 0.884 | chain 5 L8N |
| 0.771 | chain 5 L8I |
| 0.83 | chain 5 L8Y |
| 0.485 | chain 5 L8K |
| 0.676 | chain 5 L8G |
| 0.64 | chain 5 L8F |
| 0.591 | chain 5 L8V |
| 0.453 | chain 5 L8P |
| 0.468 | chain 5 L8W |
| 0.462 | chain 5 L8S |

The next lines start with the variant.

| Variant | ratio to parent |
| --- | --- |
| chain 5 E6D | 0.265 |
| chain 5 E6Y | 0.0117 |
| chain 5 E6P | 0.00676 |
| chain 5 E6G | 0.00768 |
| chain 5 E6T | 0.034 |
| chain 5 E6S | 0.0298 |
| chain 5 E6M | 0.0331 |
| chain 5 E6C | 0.0124 |
| chain 5 E6W | 0.00837 |
| chain 5 E6L | 0.0111 |
| chain 5 E6F | 0.00457 |
| chain 5 E6H | 0.0355 |
| chain 5 E6A | 0.0073 |
| chain 5 E6Q | 0.0946 |
| chain 5 E6V | 0.0176 |
| chain 5 E6I | 0.00482 |
| chain 5 E6N | 0.00523 |
| chain 5 E6R | 0.00443 |
| chain 5 I3G | 0.156 |

| Variant | ratio to parent |
| --- | --- |
| chain 5 I3E | 0.558 |
| chain 5 I3F | 0.0488 |
| chain 5 I3A | 0.56 |
| chain 5 I3D | 0.402 |
| chain 5 I3C | 0.431 |
| chain 5 F5R | 0.562 |
| chain 5 F5W | 0.738 |
| chain 5 F5E | 0.259 |
| chain 5 F5S | 0.829 |
| chain 5 F5D | 0.358 |
| chain 5 F5L | 0.765 |
| chain 5 F5H | 0.791 |
| chain 5 F5Q | 0.712 |
| chain 5 F5Y | 0.867 |
| chain 5 F5N | 0.484 |
| chain 5 F5V | 0.821 |
| chain 5 F5K | 0.374 |
| chain 5 F5P | 0.281 |
| chain 5 F5T | 0.844 |

| Variant | ratio to parent |
| --- | --- |
| chain 5 F5A | 0.973 |
| chain 5 F5I | 0.622 |
| chain 5 F5M | 1.01 |
| chain 5 I2N | 0.18 |
| chain 5 I2Y | 0.284 |
| chain 5 I2M | 0.907 |
| chain 5 I2Q | 0.366 |
| chain 5 I2F | 0.683 |
| chain 5 I2T | 0.781 |
| chain 5 I2V | 1.09 |
| chain 5 I2H | 0.244 |
| chain 5 I2D | 0.612 |
| chain 5 I2E | 0.719 |
| chain 5 I2W | 0.453 |
| chain 5 I2A | 0.954 |
| chain 5 I2S | 0.779 |
| chain 5 I2K | 0.396 |
| chain 5 I2G | 0.841 |
| chain 5 I2R | 0.593 |

Variants of: B2
Assay: % of reporter cells activated (NFAT-GFP), raw

| ratio to parent | Variant |
| --- | --- |
| 0.436 | chain 5 N4D |
| 1.25 | chain 5 S1F |
| 1.26 | chain 5 I3V |
| 1.24 | chain 5 L8R |

Second part, the variant before the results:

| Variant | ratio to parent |
| --- | --- |
| chain 5 E6H | 0.573 |
| chain 5 E6T | 0.127 |
| chain 5 E6S | 0.349 |
| chain 5 E6K | 1.14 |
| chain 5 E6F | 0.0912 |
| chain 5 E6D | 1.13 |
| chain 5 I2G | 1.3 |
| chain 5 F5A | 1.24 |
| chain 5 F5R | 1.19 |
| chain 5 F5H | 1.23 |
| chain 5 I3G | 1.22 |
| chain 5 I3E | 1.17 |
